The values below come from US20240174741A1.

The assay addresses ESYT2_Frag (human) (UniProt A0FGR8). Kind of assay: CDI HuProt native protein microarray (High-Spec cross-reactivity assay).

B1: CD1-M8 (antibody, V domains shown)
VH: EVQLQQSGPELVKPGASVKMSCKASGYTFTDYYIHWVKQSHGKGLEWIGYIFPNNGGNGYSQKFKGKATMTVDKSSSTAYMELRSLTSEDSAVYYCARGGYDAGFVYWGQGTLVTVSA
VL: DIVMSQSPSSLAVSAGEKVTMSCKSSQSLFNSGARKNFLAWYQQKPGQSPKLLIYWASTRESGVPDRFTGSGSGTDFTLTISSVQAEDLAVYYCKQSYYLITFGAGTKLELK
In the case of B1, the F635 came to 1860, the S-Score came to 2.15 and the Z-Score stood at 5.71.
